# Measured values from patent US11866736B2, “Protein prostheses for mitochondrial diseases or conditions” (The General Hospital Corporation, priority 2015, dated 2024).
# B1: LbNOX: water-forming NADH oxidase endogenous to Lactobacillus brevis; tested with C-terminal FLAG tag (protein, listed as Lactobacillus brevis)
# chain: KVTVVGCTHAGTFAIKQILAEHPDAEVTVYERNDVISFLSCGIALYLGGKVADPQGLFYSSPEELQKLGANVQMNHNVLAIDPDQKTVTVEDLTNHAQTTESYDKLVMTSGSWPIVPKIPGIDSDRVKLCKNWAHAQALIEDAKEAKRITVIGAGYIGAELAEAYSTTGHDVTLIDAMARVMPKYFDADFTDVIEQDYRDHGVQLALGETVESFTDSATGLTIKTDKNSYETDLAILCIGFRPNTDLLKGKVDMAPNGAIITDDYMRSSNPDIFAAGDSAAVHYNPTHQNAYIPLATNAVRQGILVGKNLVKPTVKYMGTQSSSGLALYDRTIVSTGLTLAAAKQQGLNAEQVIVEDNYRPEFMPSTEPVLMSLVFDPDTHRILGGALMSKYDVSQSANTLSVCIQNENTIDDLAMVDMLFQPNFDRPFNYLNILAQAAQAKVAQSVNA
# modifications: C-terminal FLAG tag
# Test: Enzyme-monitored turnover (stopped flow, FAD absorbance at 455 nm)
# Assay type: biochemical
# Protocol: The experiment was carried out by monitoring the time dependence of FAD oxidation state via its absorbance at 455 nm in 50 mM NaPi pH7.5 150 mM NaCl buffer at 4° C. Air-saturated LbNOX (1.9, 2.9, 5.6 and 9.18 μM FAD active sites after mixing) and air-saturated solution of NADH (2 mM after mixing). The traces at 455 nm are treated as records of the rate of catalysis as a continuous function of the concentration of O2 (the limiting substrate).
# The reaction of LbNOX with oxygen was studied by the enzyme-monitored turnover method (Gibson, et al., J. Biol. Chem., 239:3927, 1964; and Tapley, et al., J. Biol. Chem., 282:10263, 2007). Rapid reaction studies were carried out at 4° C. in a SX20 stopped flow instrument (Applied Photophysics, UK) equipped with a diode array detector. To follow the redox state of the FAD cofactor, LbNOX enzyme (1.9, 2.9, 5.6 and 9.18 μM FAD active sites after mixing) was mixed with NADH (2 mM after mixing), both prepared in air-saturated assay buffer (50 mM Na2HPO4, pH 7.5, 150 mM NaCl) and absorbance at 455 nm was monitored over time. Solubility of oxygen at 4° C. was calculated from oxygen solubility table at corresponding salinity of the assay buffer which is ˜380 μM. Results represent (n=3) independent experiments. The traces at 455 nm reflect the conversion of oxidized to reduced enzyme forms and are treated as previously described (Gibson, et al., J. Biol. Chem., 239:3927, 1964), where the area under the curve is proportional to the concentration of oxygen which is a limiting substrate under these conditions. […] We therefore estimated that apparent KM for O2 to be less than 2 μM. Based on the enzyme concentration (1.9-9.18 μM) and time it took to consume O2 (8.12-1.67 sec), apparent kcat can be calculated (FIG. 7).
molecule,measurement,setting,value
B1,"apparent KM for O2, fold lower than the concentration of oxygen in human venous blood",,more than 10 fold
same,apparent KM for O2 expressed as % O2,estimated from enzyme-monitored turnover,~0.17 % O2
same,Km,"estimated from enzyme-monitored turnover, 4° C., read-out: apparent KM for O2",< 2 µM
